Data from the supplement of paper PMC9876800.

Tested on: peptide library, one residue held at a place counted from the S/T acceptor
Test: relative phosphorylation of the sub-library (ratio to the mean residue at this position); higher = residue favoured
Procedure, shortened: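 Spots on streptavidin membranes were phosphorimaged and quantified by densitometry to measure phosphorylation of biotinylated degenerate peptide sub-libraries by purified recombinant kinases, human or orthologue constructs. The reactions ran in 384-well plates for 90 min under kinase-specific conditions, with peptides at 50 μM and 50 μM ATP spiked with γ-32P-ATP. Relative sub-library phosphorylation is the ratio to the mean residue at that position.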

Sequence of MYLK, construct: aa1425-1771, human (Q15746 1425-1771, looked up): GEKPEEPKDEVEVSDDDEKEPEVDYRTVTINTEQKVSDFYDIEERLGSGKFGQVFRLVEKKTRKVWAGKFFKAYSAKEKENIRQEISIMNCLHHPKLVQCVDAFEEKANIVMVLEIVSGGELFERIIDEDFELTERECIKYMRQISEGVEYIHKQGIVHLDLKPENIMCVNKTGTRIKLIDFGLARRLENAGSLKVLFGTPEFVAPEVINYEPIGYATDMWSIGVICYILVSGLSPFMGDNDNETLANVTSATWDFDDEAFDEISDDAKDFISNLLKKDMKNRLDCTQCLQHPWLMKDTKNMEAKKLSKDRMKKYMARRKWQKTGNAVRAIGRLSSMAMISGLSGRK

MYLK, construct: aa1425-1771, human (from UniProt Q15746)
relative phosphorylation (M fixed, at -1): 1.17
relative phosphorylation (M fixed, at -2): 0.607
relative phosphorylation (M fixed, at -3): 0.66
relative phosphorylation (M fixed, at -4): 1.05
relative phosphorylation (M fixed, at -5): 1.04
relative phosphorylation (N fixed, at +1): 0.873
relative phosphorylation (N fixed, at +2): 0.86
relative phosphorylation (N fixed, at +3): 0.771
relative phosphorylation (N fixed, at +4): 1.03
relative phosphorylation (N fixed, at -1): 1.55
relative phosphorylation (N fixed, at -2): 0.834
relative phosphorylation (N fixed, at -3): 0.591
relative phosphorylation (N fixed, at -4): 0.723
relative phosphorylation (N fixed, at -5): 0.677
relative phosphorylation (P fixed, at +1): 0.615
relative phosphorylation (P fixed, at +2): 0.675
relative phosphorylation (P fixed, at +3): 0.637
relative phosphorylation (P fixed, at +4): 1.01
relative phosphorylation (P fixed, at -1): 0.896
relative phosphorylation (P fixed, at -2): 0.465
relative phosphorylation (P fixed, at -3): 0.556
relative phosphorylation (P fixed, at -4): 0.651
relative phosphorylation (P fixed, at -5): 0.722
relative phosphorylation (Q fixed, at +1): 1.32
relative phosphorylation (Q fixed, at +2): 1.02
relative phosphorylation (Q fixed, at +3): 0.718
relative phosphorylation (Q fixed, at +4): 0.987
relative phosphorylation (Q fixed, at -1): 1.08
relative phosphorylation (Q fixed, at -2): 1.07
relative phosphorylation (Q fixed, at -3): 0.777
relative phosphorylation (Q fixed, at -4): 0.895
relative phosphorylation (Q fixed, at -5): 0.794
relative phosphorylation (R fixed, at +1): 1.59
relative phosphorylation (R fixed, at +2): 1.56
relative phosphorylation (R fixed, at +3): 1.06
relative phosphorylation (R fixed, at +4): 1.22
relative phosphorylation (R fixed, at -1): 1.49
relative phosphorylation (R fixed, at -2): 5.45
relative phosphorylation (R fixed, at -3): 5.91
relative phosphorylation (R fixed, at -4): 1.86
relative phosphorylation (R fixed, at -5): 1.89
relative phosphorylation (V fixed, at +1): 1.34
relative phosphorylation (V fixed, at +2): 0.93
relative phosphorylation (V fixed, at +3): 1.14
relative phosphorylation (V fixed, at +4): 0.814
relative phosphorylation (V fixed, at -1): 0.791
relative phosphorylation (V fixed, at -2): 0.521
relative phosphorylation (V fixed, at -3): 0.566
relative phosphorylation (V fixed, at -4): 1
relative phosphorylation (V fixed, at -5): 0.882
relative phosphorylation (W fixed, at +1): 0.676
relative phosphorylation (W fixed, at +2): 0.749
relative phosphorylation (W fixed, at +3): 0.907
relative phosphorylation (W fixed, at +4): 1.27
relative phosphorylation (W fixed, at -1): 0.636
relative phosphorylation (W fixed, at -2): 0.594
relative phosphorylation (W fixed, at -3): 0.611
relative phosphorylation (W fixed, at -4): 1.03
relative phosphorylation (W fixed, at -5): 0.875
relative phosphorylation (Y fixed, at +1): 0.819
relative phosphorylation (Y fixed, at +2): 1.33
relative phosphorylation (Y fixed, at +3): 1.05
relative phosphorylation (Y fixed, at +4): 0.96
relative phosphorylation (Y fixed, at -1): 0.874
relative phosphorylation (Y fixed, at -2): 0.587
relative phosphorylation (Y fixed, at -3): 0.69
relative phosphorylation (Y fixed, at -4): 1.35
relative phosphorylation (Y fixed, at -5): 2.24
relative phosphorylation (pThr fixed, at +1): 1.48
relative phosphorylation (pThr fixed, at +2): 1.39
relative phosphorylation (pThr fixed, at +3): 0.785
relative phosphorylation (pThr fixed, at +4): 1.03
relative phosphorylation (pThr fixed, at -1): 0.744
relative phosphorylation (pThr fixed, at -2): 0.528
relative phosphorylation (pThr fixed, at -3): 0.543
relative phosphorylation (pThr fixed, at -4): 0.678
relative phosphorylation (pThr fixed, at -5): 0.667
relative phosphorylation (pTyr fixed, at +1): 0.795
relative phosphorylation (pTyr fixed, at +2): 1.19
relative phosphorylation (pTyr fixed, at +3): 0.925
relative phosphorylation (pTyr fixed, at +4): 0.965
relative phosphorylation (pTyr fixed, at -1): 1.07
relative phosphorylation (pTyr fixed, at -2): 0.51
relative phosphorylation (pTyr fixed, at -3): 0.784
relative phosphorylation (pTyr fixed, at -4): 0.669
relative phosphorylation (pTyr fixed, at -5): 0.772
